The results in this text go back to US20200299380A1 (published 2020).

The target in test [1] is T1, MICA*001 expressed at the cell surface (human, UniProt Q29983 24-297).
T1 sequence: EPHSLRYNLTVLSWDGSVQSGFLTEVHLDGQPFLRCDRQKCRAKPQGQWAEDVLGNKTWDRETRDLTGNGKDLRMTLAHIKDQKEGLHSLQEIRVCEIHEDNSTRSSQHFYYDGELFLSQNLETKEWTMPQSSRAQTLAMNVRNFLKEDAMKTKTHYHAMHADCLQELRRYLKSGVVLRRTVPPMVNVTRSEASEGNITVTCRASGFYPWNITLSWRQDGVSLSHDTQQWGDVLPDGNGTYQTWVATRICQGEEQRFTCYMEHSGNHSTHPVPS
Description: cell-based or functional assay.

Test [2] concerns the target T2, human ULBP-1-Fc (R&D systems) (human, UniProt Q9BZM6 26-216, limits assumed).
T2 construct: Bought; not shown: Fc of the bought fusion protein
T2 sequence (looked up): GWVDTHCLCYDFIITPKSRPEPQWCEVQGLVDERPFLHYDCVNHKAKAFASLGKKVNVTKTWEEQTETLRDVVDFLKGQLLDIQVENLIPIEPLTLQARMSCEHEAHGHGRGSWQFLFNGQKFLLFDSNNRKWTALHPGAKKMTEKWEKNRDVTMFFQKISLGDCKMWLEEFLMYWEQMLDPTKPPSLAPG
As to the kind of experiment: SPR, antibody injected over immobilized ULBP-1-Fc. The protocol: (§1) For cross-binding study, the human ULBP-1-Fc (R&D systems*), MICB-Fc (*), ULBP-2-Fc (*) and ULBP-3-Fc (*) recombinant proteins were covalently immobilized respectively on the flow cell one to four of a CM5 sensorchip. Anti-MICA antibodies (at a constant concentration of 10 μg/ml) were injected for 2 minutes at a flow rate of 10 μl/min onto the four flow cells in parallel. After each cycle, Sensorchip was regenerated by a five second injection of appropriate regeneration buffer.

The target in test [3] is T3, human ULBP-2-Fc (R&D systems) (human, UniProt Q9BZM5 26-217, limits assumed).
T3 construct: Bought; not shown: Fc of the bought fusion protein
T3 sequence (looked up): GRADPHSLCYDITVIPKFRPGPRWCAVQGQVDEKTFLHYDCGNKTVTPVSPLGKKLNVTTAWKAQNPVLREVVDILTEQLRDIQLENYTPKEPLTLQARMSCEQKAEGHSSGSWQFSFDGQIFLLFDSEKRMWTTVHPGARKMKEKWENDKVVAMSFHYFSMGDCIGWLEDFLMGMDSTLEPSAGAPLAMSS
As to the kind of experiment: SPR, antibody injected over immobilized ULBP-2-Fc. The protocol: as §1

The target of test [4] is T4, human ULBP-3-Fc (R&D systems) (human, UniProt Q9BZM4 30-217, limits assumed).
T4 construct: Bought; not shown: Fc of the bought fusion protein
T4 sequence (looked up): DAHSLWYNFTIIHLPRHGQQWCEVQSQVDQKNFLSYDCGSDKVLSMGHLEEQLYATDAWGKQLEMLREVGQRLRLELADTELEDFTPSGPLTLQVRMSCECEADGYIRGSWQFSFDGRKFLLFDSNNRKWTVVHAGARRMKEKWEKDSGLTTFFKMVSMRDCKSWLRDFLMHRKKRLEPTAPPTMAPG
As to the kind of experiment: SPR, antibody injected over immobilized ULBP-3-Fc. The method, then: as §1

Test [5] addresses T1, MICA*001 expressed at the cell surface. Description: flow cytometry on C1R transfectant cells, 4-parameter logistic fit. The protocol: (§2) The binding of antibodies obtained from the first, second and third immunization series (including CHG1-M-MIA-19E9, CHG1-M-MIA-9C10, CHG1-M-MIA-6E4, CHG1-M-MIA-20C6, CHG1-M-MIA-16A8, CHG1-M-MIA-12A10, CHG1-M-MIA-10A7, CHG1-M-MIA-18E8, CHG1-M-MIA-10F3, CHG1-M-MIA-15F9 and CHG1-M-MIA-14B4) were tested for binding to MICA-expressing CR1 transfectant cells C1R-MICA*001, C1R-MICA*004, C1R-MICA*007 and C1R-MICA*008 (Pr. A. Steinle, Eberhard-Karls University Tuebingen, Germany) described in Salih et al. (2003) Blood 102(4): […]. Binding was analyzed by flow cytometry.
(§3) Cells were harvested and stained in PBS 1×/BSA 0.2%/EDTA 2 mM buffer during 30 minutes at 4° C. using a dose-range of the anti-MICA mAbs. After two washes in staining buffer, cells were stained for 30 min at 4° C. with mouse anti-human IgG1-PE monoclonal antibodies (1/11). After two washes, stainings were acquired on a BD FACS Canto II and analyzed using the FlowJo software.
(§4) Antibodies CHG1-M-MIA-19E9, CHG1-M-MIA-9C10, CHG1-M-MIA-6E4, CHG1-M-MIA-20C6, CHG1-M-MIA-12A10, CHG1-M-MIA-10A7, CHG1-M-MIA-18E8, CHG1-M-MIA-10F3, and CHG1-M-MIA-15F9 bound to each of the C1R-MICA*001, C1R-MICA*004, C1R-MICA*007 and C1R-MICA*008 cells (see FIG. 1A for antibodies CHG1-M-MIA-19E9, CHG1-M-MIA-9C10, CHG1-M-MIA-6E4, CHG1-M-MIA-20C6, CHG1-M-MIA-12A10, CHG1-M-MIA-10F3, and FIG. 1B for antibodies, CHG1-M-MIA-18E8, CHG1-M-MIA-15F9, CHG1-M-MIA-10A7). […] EC50 values are shown in Table C in μg/ml (calculated using a 4-parameter logistic fit).

Test [6] deals with T5, MICA*004 expressed at the cell surface (human, UniProt Q29983 24-297).
T5 construct: also called C1R-MICA*004; C1R-MICA*04
T5 chain: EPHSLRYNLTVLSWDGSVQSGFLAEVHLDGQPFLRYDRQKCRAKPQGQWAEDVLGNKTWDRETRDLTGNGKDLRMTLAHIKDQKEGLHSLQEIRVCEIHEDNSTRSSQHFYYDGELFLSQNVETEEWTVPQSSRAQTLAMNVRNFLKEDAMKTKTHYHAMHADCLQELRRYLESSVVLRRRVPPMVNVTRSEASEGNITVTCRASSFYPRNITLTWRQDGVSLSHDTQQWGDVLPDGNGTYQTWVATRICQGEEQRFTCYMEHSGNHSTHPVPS
Described as above. The protocol:
as §2, §3, §4

Test [7] addresses T6, MICA*007 expressed at the cell surface (human, UniProt Q29983 24-297).
T6 construct: also called C1R-MICA*007; C1R-MICA*07
T6 chain: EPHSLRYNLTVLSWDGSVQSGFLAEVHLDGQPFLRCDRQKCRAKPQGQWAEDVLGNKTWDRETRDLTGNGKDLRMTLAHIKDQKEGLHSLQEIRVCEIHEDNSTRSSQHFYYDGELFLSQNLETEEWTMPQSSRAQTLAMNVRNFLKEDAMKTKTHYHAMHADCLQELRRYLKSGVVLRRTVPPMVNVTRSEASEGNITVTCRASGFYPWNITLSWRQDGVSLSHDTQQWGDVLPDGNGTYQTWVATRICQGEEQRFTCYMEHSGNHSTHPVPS
The description is as above. The protocol:
as §2, §3, §4

Test [8] has as its target T7, MICA*008 expressed at the cell surface (human, UniProt Q29983 24-297).
T7 construct: also called C1R-MICA*008; C1R-MICA*08
T7 chain: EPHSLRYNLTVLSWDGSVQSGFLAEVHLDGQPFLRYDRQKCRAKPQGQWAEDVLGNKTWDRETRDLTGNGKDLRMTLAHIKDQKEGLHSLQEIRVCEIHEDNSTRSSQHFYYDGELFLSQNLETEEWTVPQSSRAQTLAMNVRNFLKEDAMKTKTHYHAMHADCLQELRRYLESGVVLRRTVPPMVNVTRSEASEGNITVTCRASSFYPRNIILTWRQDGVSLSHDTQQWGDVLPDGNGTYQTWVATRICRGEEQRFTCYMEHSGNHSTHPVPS
The description is as above. The method, then:
as §2, §3, §4

For test [9], the target named is T8, recombinant human MICA extracellular domain recombinant-His protein (MICA*001 allele) (human, UniProt Q29983 24-297).
T8 construct: also called MICA*001-His; MICA-His; not shown: His tag
T8 sequence: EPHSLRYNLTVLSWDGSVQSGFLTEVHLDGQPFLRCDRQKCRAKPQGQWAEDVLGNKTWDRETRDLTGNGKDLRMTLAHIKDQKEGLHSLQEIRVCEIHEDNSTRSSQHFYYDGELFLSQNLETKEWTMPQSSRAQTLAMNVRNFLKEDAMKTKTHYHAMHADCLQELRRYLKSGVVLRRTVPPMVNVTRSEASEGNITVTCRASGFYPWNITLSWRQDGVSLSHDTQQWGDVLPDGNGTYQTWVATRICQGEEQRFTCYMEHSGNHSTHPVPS
Description: SPR (Biacore T100), bivalent mean KD at pH 7.4, MICA*001-His on NTA chip, antibody injected. The method, then:
The binding of 6E4, 20C6 and 16A8 to either recombinant human MICA extracellular domain recombinant protein monomers or dimers (MICA*019 allele-Fc protein or MICA*001-His protein) as well as other NKG2D ligands MICB and ULBP1-2 was analyzed by Surface Plasmon Resonance (SPR) using a Biacore T100 apparatus to obtain monovalent and bivalent affinity, respectively.
Each cycle consisted of three steps. Firstly, the NTA chip was activated with NiSO₄ (500 mM). Secondly, the MICA-His protein (diluted to 10 μg/ml in running buffer HBS-P) was immobilized onto the surface via a 2 min injection at a constant flowrate of 10 μL/min. Then the antibody was injected over the immobilized antigen for 2 min at the flow rate of 40 μl/min. Subsequently, the running buffer was injected for 5 min at 40 μl/min for antibody dissociation analysis. After each cycle, the surface was regenerated by a 60s injection of 0.5M EDTA, pH 8.3 to completely strip the surface of the remaining antigen and antibody. The resulting sensorgrams were analyzed by global fitting using the appropriate model.

The target in test [10] is T9, MICB-Fc (R&D Systems 1599-MB) (human, UniProt Q29980 23-298, limits assumed).
T9 construct: Bought; also called human MICB-Fc; not shown: Fc of the bought fusion protein
T9 sequence: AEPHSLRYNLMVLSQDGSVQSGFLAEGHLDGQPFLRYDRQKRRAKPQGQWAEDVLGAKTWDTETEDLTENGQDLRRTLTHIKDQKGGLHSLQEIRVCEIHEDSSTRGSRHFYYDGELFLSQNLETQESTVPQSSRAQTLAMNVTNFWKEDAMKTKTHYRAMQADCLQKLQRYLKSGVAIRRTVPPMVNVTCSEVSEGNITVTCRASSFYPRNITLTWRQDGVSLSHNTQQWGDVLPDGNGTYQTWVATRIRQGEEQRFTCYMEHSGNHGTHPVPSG
Description: SPR, antibody injected over immobilized MICB-Fc. The method, then:
as §1

B1: CHG1-M-MIA-9C10 (antibody, human IgG1, V domains shown)
VH: QVQLQQPGAELVRPGTSVNLSCKASGYSFTRYWMNWVKQRPGQGLEWIGMIHPSDSETRLNQKFKDKATLTVDKSSSTAYMQLSSPTSEDSAVYYCGYGNFFYVMDYWGQGTSVTVSS
VL: DILLTQSPAILSVSPGERVSFSCRASQSIGTSIHWYQQRTNGSPRLLIKFASESISGIPSRFSGSGSGTDFTLNINSVESEDIADYYCQQSNFWPFTFGSGTKLEVK
notes: also called chimeric anti-MICA 9C10
For the molecule B1, in test [1], the “CDC: EC50 of the increase in dead (7-AAD positive) Raji-MICA*01 cells with human complement” value amounted to 2 µg/mL. Moreover, the binding result in [2], in test [3] and in test [4] was “no binding (tested: 10 µg/ml)” each time. Also, the EC50 in test [5] stood at 2.09 µg/mL; in [6], 0.13 µg/mL; in test [7], 2.83 µg/mL; in [8], 0.13 µg/mL.

B2: biotin-conjugated mouse antibody 9C10 (antibody, V domains shown)
VH: QVQLQQPGAELVRPGTSVNLSCKASGYSFTRYWMNWVKQRPGQGLEWIGMIHPSDSETRLNQKFKDKATLTVDKSSSTAYMQLSSPTSEDSAVYYCGYGNFFYVMDYWGQGTSVTVSS
VL: DILLTQSPAILSVSPGERVSFSCRASQSIGTSIHWYQQRTNGSPRLLIKFASESISGIPSRFSGSGSGTDFTLNINSVESEDIADYYCQQSNFWPFTFGSGTKLEVK
notes: also called 9C10 (mouse)
For B2, the Kd in test [9] was found to be 0.62 pM.

B3: CHG1-M-MIA-14B4 (antibody, V domains shown)
VH: QVQLQQPGAELVRPGASVKLSCKASGYSFTSYWMNWMKQRPGQGLEWIGMIHPSDSETRLNQKFKDKATLTVDKSSSTAYMQLNSPTSEDSAVYYCAREMGPYTLDYWGQGTSVTVSS
VL: DILLTQSPAILSVSPGARVSFSCRASQNIDTSIHWYQQRTNGSPRLLIKYASESISGIPSRFSGSGSGTDFTLSINSVESEDIADYYCQQSNYWPLTFGAGTKLELK
notes: the VH entry ends with ASTK
In the case of B3, the binding result in test [10] is reported as “no binding (tested: 10 µg/ml)”. For the same molecule, the EC50 in test [5] was 12.7 µg/mL; in test [6], 0.24 µg/mL; in test [8], 0.3 µg/mL.
